Experimental data as given in publication PMC4570336.
Read-outs that look alike come from different tables or passages of the source.

Key:
[1] = tested on: Inactivated H5N1 avian influenza virus (whole virion) (Avian influenza virus H5N1 (Scotland/59))
[2] = tested on: Inactivated H1N1 influenza virus (whole virion) (Avian influenza virus H1N1 (strain not stated)); conditions: 5'-biotin; scale: ohm
[3] = tested on: Inactivated H7N2 avian influenza virus (whole virion) (Avian influenza virus H7N2 (strain not stated)); conditions: 5'-biotin; scale: ohm
[4] = tested on: Inactivated H2N2 influenza virus (whole virion) (Avian influenza virus H2N2 (strain not stated)); conditions: 5'-biotin; scale: ohm
[5] = tested on: Inactivated H5N1 avian influenza virus (whole virion) (Avian influenza virus H5N1 (Scotland/59)); assay: SPR; conditions: 5'-biotin; cited from earlier work

CCGAATTCGAAGGACAAGAGGCGAAAAGATTTAAAGTAATCAAAGACTGAGCAACTCTTATCTTTTATGCTACGTCCCGC [control sequence (non-target aptamer)]
binding signal (ohm (impedance increase)) [1]: 282

GTGTGCATGGATAGCACGTAACGGTGTAGTAGATACGTGCGGGTAGGAAGAAAGGGAAATAGTTGTCCTGTTG [H5N1 aptamer]
binding signal [2]: -2000
binding signal [3]: -2000
binding signal [4]: -2000
binding signal (ohm (impedance increase)) ([1]; 5'-biotin): 61000
Kd [5]: 4.65 nM
